# In paper PMC1874592:
# Substrate: Nc1ncnc2c1ncn2[C@@H]1O[C@H](COP(=O)(O)OP(=O)(O)OP(=O)(O)O)[C@@H](O)[C@H]1O
# Assay: purified protein
# Conditions: labelled compound, ΦX174 ssDNA, Mg2+, 65°C
Protein,Km (5.0 μM protein),kcat (5.0 μM protein),further results
SsoRadA (Sulfolobus solfataricus RadA) (Saccharolobus solfataricus P2) (protein) MSNEVEQKKNIKTINDLPGISQTVINKLIEAGYSSLETLAVASPQDLSVAAGIPLSTAQKIIKEARDALDIRFKTALEVKKERMNVKKISTGSQALDGLLAGGIETRTMTEFFGEFGSGKTQLCHQLSVNVQLPPEKGGLSGKAVYIDTEGTFRWERIENMAKALGLDIDNVMNNIYYIRAINTDHQIAIVDDLQELVSKDPSIKLIVVDSVTSHFRAEYPGRENLAVRQQKLNKHLHQLTRLAEVYDIAVIITNQVMARPDMFYGDPTVAVGGHTLYHVPGIRIQLKKSRGNRRIARVVDAPHLPEGEVVFALTEEGIRDAEE,,,Km (3.0 μM protein): 300 ± 10 µM; kcat (3.0 μM protein): 0.00085 ± 1.7e-05 s⁻¹
SsoRadA (Sulfolobus solfataricus RadA) (Saccharolobus solfataricus P2; R83A) (protein) MSNEVEQKKNIKTINDLPGISQTVINKLIEAGYSSLETLAVASPQDLSVAAGIPLSTAQKIIKEARDALDIRFKTALEVKKEAMNVKKISTGSQALDGLLAGGIETRTMTEFFGEFGSGKTQLCHQLSVNVQLPPEKGGLSGKAVYIDTEGTFRWERIENMAKALGLDIDNVMNNIYYIRAINTDHQIAIVDDLQELVSKDPSIKLIVVDSVTSHFRAEYPGRENLAVRQQKLNKHLHQLTRLAEVYDIAVIITNQVMARPDMFYGDPTVAVGGHTLYHVPGIRIQLKKSRGNRRIARVVDAPHLPEGEVVFALTEEGIRDAEE,,,Km (2.5 μM protein): 210 ± 10 µM; kcat (2.5 μM protein): 0.00152 ± 1.7e-05 s⁻¹
SsoRadA (Sulfolobus solfataricus RadA) (Saccharolobus solfataricus P2; R83E) (protein) MSNEVEQKKNIKTINDLPGISQTVINKLIEAGYSSLETLAVASPQDLSVAAGIPLSTAQKIIKEARDALDIRFKTALEVKKEEMNVKKISTGSQALDGLLAGGIETRTMTEFFGEFGSGKTQLCHQLSVNVQLPPEKGGLSGKAVYIDTEGTFRWERIENMAKALGLDIDNVMNNIYYIRAINTDHQIAIVDDLQELVSKDPSIKLIVVDSVTSHFRAEYPGRENLAVRQQKLNKHLHQLTRLAEVYDIAVIITNQVMARPDMFYGDPTVAVGGHTLYHVPGIRIQLKKSRGNRRIARVVDAPHLPEGEVVFALTEEGIRDAEE,460 ± 60 µM,0.000867 ± 6.7e-05 s⁻¹,
SsoRadA (Sulfolobus solfataricus RadA) (Saccharolobus solfataricus P2; F73D) (protein) MSNEVEQKKNIKTINDLPGISQTVINKLIEAGYSSLETLAVASPQDLSVAAGIPLSTAQKIIKEARDALDIRDKTALEVKKERMNVKKISTGSQALDGLLAGGIETRTMTEFFGEFGSGKTQLCHQLSVNVQLPPEKGGLSGKAVYIDTEGTFRWERIENMAKALGLDIDNVMNNIYYIRAINTDHQIAIVDDLQELVSKDPSIKLIVVDSVTSHFRAEYPGRENLAVRQQKLNKHLHQLTRLAEVYDIAVIITNQVMARPDMFYGDPTVAVGGHTLYHVPGIRIQLKKSRGNRRIARVVDAPHLPEGEVVFALTEEGIRDAEE,490 ± 30 µM,0.00085 ± 1.7e-05 s⁻¹,
